Data as given in patent US6335019B1, “Methods for treating sensitivity to protein allergen using peptides which include a T cell epitope recognized by a T cell receptor specific for the protein allergen” (Immulogic Pharmaceutical Corp., priority 1989, dated 2002).

Tests used:
[1] = tested on: T cells from patients allergic to ragweed; assay: T cell proliferation of ragweed allergic patient T cells to ragweed proteins and recombinant lysates (tritiated thymidine); assay type: cell-based, human; conditions: for T cell recognition and proliferation (in words): T cells previously stimulated with mixed ragweed pollen extract, summary of Table 4
From the text: T cells from patients allergic to ragweed, previously stimulated with a mixed ragweed pollen extract, can recognize and proliferate in response to pollen extract, ragweed skin test reagent (RWST), affinity purified Amb a I protein and crude bacterial lysates containing recombinant Amb a I gene products IA, IB and IC (Table 4). […] The use of crude bacterial lysates as antigens precludes a firm conclusion form the negative responses, since the relative levels of recombinant proteins in lysate have not been determined.
Peripheral blood mononuclear cells (PBMC) were purified from 60 ml of heparinized blood from ragweed-allergic patients. PBMC were subsequently treated as described below, although in individual cases, the length of time of cultivation with IL-2 and IL-4 and the specific ragweed proteins and peptides used for stimulation varied. As an example, ten ml of patient 222 PBMC at 10^6/ml were cultured at 37° C. for 7 days in the presence of 20 micrograms aqueous ragweed pollen extract/ml RPMI-1640 supplemented with 5% pooled human AB serum. Viable cells were purified by Ficoll-Hypaque centrifugation and cultured for three weeks at 5 units recombinant human IL-2/ml and 5 units recombinant human IL-4/ml. The resting T cells were then restimulated (secondary) with 20 micrograms aqueous ragweed pollen extract/ml at a density of 2×10^5 cells/ml in the presence of X-irradiated (3500 RADS) autologous PBMC (5×10^5/ml) for three days, purified by Ficoll-Hypaque centrifugation and grown in 5 units IL-2/ml and 5 units IL-4/ml for two weeks. For assay, 2×10^4 resting secondary T cells were restimulated (tertiary) in the presence of 5×10^4 X-irradiated (3500 RADS) autologous PBMC or 2×10^4 autologous Epstein-Barr virus-transformed B cells (20,000 RADS) with various concentrations of allergen or their fragments in a volume of 200 microliters in 96-well round bottom assay plates for 3 days. Each well then received 1 microCurie tritiated (methyl) thymidine for 16 hours. The counts incorporated were collected onto glass fiber filters and processed for liquid scintillation counting. […] Antigens used: IPC aqueous pollen extract (pollen), Hollister-Stier ragweed skin test extract (RWST), ALK cat epithelium skin test extract (CST), affinity 4B5/B7 antibody purified (dialyzed) Amb a I (B7), and chromatographically purified Amb a I and (Amb a I). Medium only control is shown as a line with no symbol. Alternatively, PBMC were sometimes carried only into a secondary assay (as outlined above for a tertiary assay) with 20 micrograms aqueous pollen extract 7 days, followed by culture in 5 units IL-2/ml and 5 units IL-4/ml for 2-3 weeks. […] Secondary and tertiary assays of a panel of ragweed allergic patients were performed using synthetic peptides derived from the sequences of various ragweed pollen proteins. […] Another four peptides (RAE15.6, RAE3.D, RAE28.1, RAE26.15) which are also derived from the sequence of the same three cDNA's could stimulate 35 to 58% of the patients' T cells. One peptide (RAE4) which is derived from the cDNA of IPC Clone 5 could also stimulate 25% of the patients' T cells. […] By this method it is possible to identify novel therapeutic and diagnostics entities for use in the treatment and the diagnosis of ragweed allergy.

[2] = tested on: goat anti-Amb a I antibody; assay: Western blot of E. coli-expressed recombinant Amb a I / Amb a II with goat anti-Amb a I antibody (FIG. 19); assay type: binding
Description: Furthermore, full-length and truncated cDNAs encoding several members of the Amb a I multigene family, as well as Amb a II, were cloned in-frame into the expression vector pTrc99 (Amann et al. Gene, 69:301-315, (1988)) and transformed into the JM109 host. Expression of recombinant Amb a I and Amb a II protein was induced by 1 mM isopropyl-β-D-thiogalactopyranoside, cells were harvested, lysozyme treated, sonicated and insoluble inclusion bodies recovered by a low speed centrifugation. Recombinant Amb a I and Amb a II protein present in the recovered pellet was solubilized in buffer containing 8M urea, 50 mM Tris HC1 pH8.0, 50 mM NaCl, 1 mM EDTA, 1 mM dithiothreitol, 1 mM phenylmethylsulfonyl fluoride. After solubilization, the crude urea lysate was dialyzed at 4° C. against PBS. […] This antigenic cross-reactivity is consistent with the observed sequence homology of the cDNAs (see FIG. 16).
Isoelectric focusing was done on a Hoeffer gel apparatus with 15 μg of crude soluble pollen protein. The gel consisted of 7.5% acrylamide with 3.5% Pharmalytes pH 4.5-5.3 (Pharmacia) and 3.5% Ampholines pH 3.5-10 (LKB), run at 13W for 3.5 hours until a constant voltage was reached. The gel section was placed on a slab of 10% acrylamide SDS-PAGE and electrophoresed for 3.5 hours at 40 mA according to the protocol cited. The proteins were transferred overnight in phosphate buffer to 0.1 micron nitrocellulose (Schleicher and Schuell) at 0.2A. The blot was rinsed in blot solution (25 mM Tris-CHl pH 7.5, 0.171 M NaCl, 0.05% Tween-20; Sigma). The first antibody incubation was overnight at room temperature with a […] of goat anti-Amb a I IgC (obtained from Dr. David Marsh) in blot solution. The excess first antibody was removed with three 15 minute rinses with blot solution. The second antibody was a 1:2,500 dilution of biotinylated swine anti-goat IgG (Boehringer-Manneheim) in blot solution for two hours. The blot was then rinsed with blot solution three times for 15 minutes and incubated for 1 hr in blot solution with 2 μCi I^125 streptavidin (Amersham). The blots were rinsed with blot solution until the waste wash was down to background. The blot was then exposed to film at —80° C. overnight. In the case of one-dimensional SDS-PAGE Western blots (FIGS. 17, 19 and 20) the isoelectric focusing step was omitted. When human sera was used to probe the Western blots (FIGS. 17 and 20), 10% human plasma in 1% milk in blot solution was incubated overnight with the blot prior to using as second antibody biotinylated goat anti-human IgE.

[3] = patient 151 2° (secondary assay)
[4] = patient 274 2° (secondary assay)
[5] = patient 295 2° (secondary assay)
[6] = patient 296 2° (secondary assay)
[7] = patient 314 2° (secondary assay)
[8] = patient 316 2° (secondary assay)
[9] = patient 319 2° (secondary assay)
[10] = patient 320 2° (secondary assay)
[11] = patient 321 2° (secondary assay)
[12] = patient 222 2° (secondary assay)

Molecule	T cell recognition and proliferation (in words) [1]	Stimulatory response of human T cells (proliferation compared to medium control) [1, 3]	Stimulatory response of human T cells (proliferation compared to medium control) [1, 4]	Stimulatory response of human T cells (proliferation compared to medium control) [1, 5]	Stimulatory response of human T cells (proliferation compared to medium control) [1, 6]	Stimulatory response of human T cells (proliferation compared to medium control) [1, 7]	Stimulatory response of human T cells (proliferation compared to medium control) [1, 8]	Stimulatory response of human T cells (proliferation compared to medium control) [1, 9]	Stimulatory response of human T cells (proliferation compared to medium control) [1, 10]	Stimulatory response of human T cells (proliferation compared to medium control) [1, 11]	Binding by goat anti-Amb a I antibody (in words) [2]	Stimulatory response of human T cells (proliferation compared to medium control) [1, 12]	T cell response in secondary assay (in words) ([1]; one ragweed allergic patient, FIG. 21)
Amb a IB: E. coli expressed recombinant Amb a IB, used as crude bacterial lysate (protein) LYFTLALVTLLQPVRSAEDVEEFLPSANETRRSLKACEAHNIIDKCWRCKADWANNRQALADCAQGFAKGTYGGKHGDVYTVTSDKDDDVANPKEGTLRFAAAQNRPLWIIFKRNMVIHLNQELVVNSDKTIDGRGVKVNIVNAGLTLMNVKNIIIHNINIHDIKVCPGGMIKSNDGPPILRQQSDGDAINVAGSSQIWIDHCSLSKASDGLLDITLGSSHVTVSNCKFTQHQFVLLLGADDTHYQDKGMLATVAFNMFTDHVDQRMPRCRFGFFQVVNNNYDRWGTYAIGGSSAPTILSQGNRFFAPDDIIKKNVLARTGTGNAESMSWNWRTDRDLLENGAIFLPSGSDPVLTPEQKAGMIPAEPGEAVLRLTSSAGVLSCHQGAPC	proliferate	+ (2-4 fold)	+ (2-4 fold)	+ (2-4 fold)	+++ (>10 fold)	+++ (>10 fold)	++ (4-10 fold)	(+) (2 fold)	+ (2-4 fold)	++ (4-10 fold)	binds specifically		
Amb a IA: full-length recombinant Amb a IA, amino acid 10-398, E. coli expressed, used as crude bacterial lysate (protein) LYFTLALVTLLQPVRSAEDLQEILPVNETRRLTTSGAYNIIDGCWRGKADWAENRKALADCAQGFGKGTVGGKDGDIYTVTSELDDDVANPKEGTLRFGAAQNRPLWIIFERDMVIRLDKEMVVNSDKTIDGRGAKVEIINAGFTLNGVKNVIIHNINMHDVKVNPGGLIKSNDGPAAPRAGSDGDAISISGSSQIWIDHCSLSKSVDGLVDAKLGTTRLTVSNSLFTQHQFVLLFGAGDENIEDRGMLATVAFNTFTDNVDQRMPRCRHGFFQVVNNNYDKWGSYAIGGSASPTILSQGNRFCAPDERSKKNVLGRHGEAAAESMKWNWRTNKDVLENGAIFVASGVDPVLTPEQSAGMIPAEPGESALSLTSSAGVLSCQPGAPC	proliferate	(+) (2 fold)									binds specifically	++ (4-10 fold)	
Amb a IC: E. coli expressed recombinant Amb a IC, used as crude bacterial lysate (protein) LYFTLALVALLQPVRSAEGVGEILPSVNETRSLQACEALNIIDKCWRGKADWENNRQALADCAQGFAKGTYGGKWGDVYTVTSNLDDDVANPKEGTLRFAAAQNRPLWIIFKNDMVINLNQELVVNSDKTIDGRGVKVEIINGGLTLMNVKNIIIHNINIHDVKVLPGGMIKSNDGPPILRQASDGDTINVAGSSQIWIDHCSLSKSFDGLVDVTLGSTHVTISNCKFTQQSKAILLGADDTHVQDKGMLATVAFNMFTDNVDQRMPRCRFGFFQVVNNNYDRWGTYAIGGSSAPTILCQGNRFLAPDDQIKKNVLARTGTGAAESMAWNWRSDKDLLENGAIFVTSGSDPVLTPVQSAGMIPAEPGEAAIKLTSSAGVFSCRPGAPC	proliferate	+ (2-4 fold)	++ (4-10 fold)	+ (2-4 fold)	+++ (>10 fold)	+++ (>10 fold)	+++ (>10 fold)	++ (4-10 fold)		+ (2-4 fold)	binds specifically	++ (4-10 fold)	
affinity purified Amb a I: protein affinity purified from pollen extract with monoclonal antibody 4B5/B7 (protein) AEDLQEILPVNETRRLTTSGAYNIIDGCWRGKADWAENRKALADCAQGFGKGTVGGKDGDIYTVTSELDDDVANPKEGTLRFGAAQNRPLWIIFERDMVIRLDKEMVVNSDKTIDGRGAKVEIINAGFTLNGVKNVIIHNINMHDVKVNPGGLIKSNDGPAAPRAGSDGDAISISGSSQIWIDHCSLSKSVDGLVDAKLGTTRLTVSNSLFTQHQFVLLFGAGDENIEDRGMLATVAFNTFTDNVDQRMPRCRHGFFQVVNNNYDKWGSYAIGGSASPTILSQGNRFCAPDERSKKNVLGRHGEAAAESMKWNWRTNKDVLENGAIFVASGVDPVLTPEQSAGMIPAEPGESALSLTSSAGVLSCQPGAPC	proliferate	(+) (2 fold)	++ (4-10 fold)		+++ (>10 fold)	+++ (>10 fold)	+++ (>10 fold)	++ (4-10 fold)	+++ (>10 fold)	+ (2-4 fold)		+++ (>10 fold)	responded
